Measured values from paper PMC3962895.

Molecular target: dEV8 (8-mer self-peptide) peptide on H-2Kb (mouse)
Assay: data from

2C TCR
Kd: 84.1 µM
